The target of the assay is Phaseolus coccineus PCNA1 (PcPCNA1), recombinant (Phaseolus coccineus). The experiment in a line: SEC. (In general: SEC sorts molecules by how far they enter the pores of the column.)

By stoichiometry N is commonly meant the number of molecules, sites or subunits per partner or assembly. With “Phaseolus coccineus PCNA1 (PcPCNA1), recombinant (natural protein)”, the stoichiometry N was 3.

(Values after article PMC2814116.)
